From the nanobody polyreactivity screen of Harvey et al. (2022)

Assay: yeast display, Sf9 membrane polyspecificity reagent, FACS + sequencing; frameworks hold sequencing errors
Summary of the method: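 Polyreactivity labels are assigned by the sorting gate from which each nanobody was recovered. The gates were low and high (top ~1%), set on anti-HA fluorescence for expression and streptavidin fluorescence for reagent binding. Before sorting, galactose-induced (36–48 hours) yeast display cells were stained for 1 hour at 4 °C with 10% biotinylated, detergent-solubilized Sf9 membrane reagent.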

| Sequence | polyreactivity (PSR sort gate) |
| --- | --- |
| QVQLVESGGGLVQAGGSLRLSCAASGSIFPSYAMGWYRQAPGKERELVAAISSGGTTNYADSVKGRFTISLDNAKNTVYLQMNSLKPEDTAVYYCAAVRGDSEDRYDHWGQGTQVTVSS | high polyreactivity |
| QVQLVESGGGLVQAGGSLRLSCAASGSIFPSYAMGWYRQAPGKERELVAAISSRGGSTYYADSVKGRFTISRDNAKNTVYLQMNSLKPEDTAVYYCAADWSYYRRHFDYWGQGTQVTVSS | high polyreactivity |
| QVQLVESGGGLVQAGGSLRLSCAASGSIFPSYAMGWYRQAPGKERELVAAISTWNDGGTYYADSVKGRFTISRDNGKNTVYLQMNSLKPEDTAVYYCAADSPKYYYDYDYWGQGTQVTVSS | low polyreactivity |
| QVQLVESGGGLVQAGGSLRLSCAASGSIFPTNAMGWYRQAPGKERELVAAITSGGGTNYADSVMGRFTISRDNAKNTVYLQMNSLKTEDTAVYYCAADRYVEYGYWGQGTQVTVSS | low polyreactivity |
| QVQLVESGGGLVQAGGSLRLSCAASGSIFPVYAMGWYRQAPGKERELVAAINSSGGTTYYADSVKGRFSNSRDNAKNTVYLQMNSLKPEDTAVYYCAAEICTSSYLAKTYDYWGQGTQVTVSS | low polyreactivity |
| QVQLVESGGGLVQAGGSLRLSCAASGSIFPYNAMGWYRQAPGKEMELVATISSGGSTNYADSVKGRFTISRDNAKNTVYLQMNSLKPEDTAVYYCAADVIVFYYAPNYWGDIEYGYWGQGTQVTVSS | low polyreactivity |
| QVQLVESGGGLVQAGGSLRLSCAASGSIFPYNAMGWYRQAPGKERELVAAISKRGGSTYYADSVKGRFTISRDNAKNTVYFQMNSLKPEDTAVYYCAARYPPYRSWYSYDYWGQGTQVTVSS | low polyreactivity |
| QVQLVESGGGLVQAGGSLRLSCAASGSIFPYNAMGWYRQAPGKERELVATINSRGGRTYYADSVKGRFTISRDNAKNTVYLQMNSLKPEDTAVYYCARYYSSALRYGYWGQGTQVTVSS | low polyreactivity |
| QVQLVESGGGLVQAGGSLRLSCAASGSIFPYNAMGWYRQAPGKERELVATISSGGSTNYADSVKGRFTISRDNAKNTVYLQMNSLKPEDTAVYYCATDDFWNVKFYAYYPEFDYWGQGTQVTVSS | low polyreactivity |
| QVQLVESGGGLVQAGGSLRLSCAASGSIFPYVNAMGWYRQAPGKERELVASIPGGGGTKYADSVKGRFTISRDNAKNTVYLQMNSLKPEDTAVYYCNATSGNPASTAWMNYWGQGTQVTVSS | low polyreactivity |
| QVQLVESGGGLVQAGGSLRLSCAASGSIFPYYALGRYRQAPGKERELVADITSSGGSTYYADSVKGRFTISRDNAKNTVYLQMNSLKPEDTAVYYCAALYWFYVYPFTEYDYWGQGTQVTVSS | low polyreactivity |
| QVQLVESGGGLVQAGGSLRLSCAASGSIFPYYAMGWYIQAPGKERELVAVITTSGGRTYYADSVKGRFTISRDNAKNTVYLQMNSLKPEDTAVYYCATDVRQGSGWRYYYWGQGTQVTVSS | high polyreactivity |
| QVQLVESGGGLVQAGGSLRLSCAASGSIFPYYAMGWYRKAPGKERELVAAISSSGGSTTYADSVKGRFTISRDHAKNTVYLQMNSLKPEDTAVYYCAALTYRRSSGGFDYWGQGTQVTVSS | high polyreactivity |
| QVQLVESGGGLVQAGGSLRLSCAASGSIFPYYAMGWYRPAPGKERELVAVISRGGGRTYYADSVKGRFTISRDNAKITVYLQMNSLKPEDTAVYYCYAGYPYGGDYWGQGTQVTVSS | high polyreactivity |
| QVQLVESGGGLVQAGGSLRLSCAASGSIFPYYAMGWYRQAPGKERELVAAITGAGSTNYADSVKGRFTISRDNAKNTVYLQRNSLKPEDTAVYYCAADFGSPDKWRDWYDYWGQGTQVTVSS | low polyreactivity |
| QVQLVESGGGLVQAGGSLRLSCAASGSIFPYYAMGWYRQAPGKERELVASISRSVGSTFYADSVKGRFTISRDNAKNTVYLQMNSLKPEDTAVYYCAVRYFAQFGDYDYWGQGTQVTVSS | high polyreactivity |
| QVQLVESGGGLVQAGGSLRLSCAASGSIFPYYAMGWYRQAPGKERELVATITYRGGSTNYADSVKGRFTISRDNAKNTVYLQMNSLNPEDTAVYYCAAYGYVLASPYPYSFVKLGYWGQGTQVTVSS | low polyreactivity |
| QVQLVESGGGLVQAGGSLRLSCAASGSIFPYYAMGWYRQATGKERELVATITSRGGSTYYADSVKGRFTISRDNAKNTVYLQMNSLIPEDTAVYNCAKEYRYYRRRYDYWGQGTQVTVSS | high polyreactivity |
| QVQLVESGGGLVQAGGSLRLSCAASGSIFPYYTMGWYRQAPGKERELVAAITTSDSSTYYADSVKGRFTISRDNAKNTVYLQMNSLKPEDTAVYYCAARYSLYPYYAYDDAYRLYRLRGRDYWGQGTQVTVSS | low polyreactivity |
| QVQLVESGGGLVQAGGSLRLSCAASGSIFQAYAMGWYRQAPGKERELVAAITASGTRTYYADSVKGRFTISRDNAQNTVYLQMNSLKPEDTAVYYCAAGTYRWGFGVRSAMDYWGQGTQVTVSS | high polyreactivity |
| QVQLVESGGGLVQAGGSLRLSCAASGSIFQAYAMGWYRQAPGKERELVASISQSGDSTYYADSVKGRFTISRDNAKNTVYLQMNSLKPEDTAVYYCAAVQYGHRRGRVSVRRRLDYWGQGTQVTVSS | low polyreactivity |
| QVQLVESGGGLVQAGGSLRLSCAASGSIFQENAMGWYRQAPGKERELVAAINTGSITSYADSVKGRFTISRDNAKNTVYLQMNSLKPEDTAVYYCAADSFSLYDSWGQGTQVTVSS | low polyreactivity |

| Sequence | polyreactivity (PSR sort gate) |
| --- | --- |
| QVQLVESGGGLVQAGGSLRLSCAASGSIFQFYAMGWYRQAPGKERELVAVITTSGVSTYYADSVKGRFTISRDNAKNTVYLQMNSLKPEDTAVYYCAADDYYLAGDYWGQGTQVTVSS | low polyreactivity |
| QVQLVESGGGLVQAGGSLRLSCAASGSIFQFYAMGWYRQAPGKERELVAVITTSGVSTYYADSVKGRFTISRDNAMNTVYLQMNSLKPEDTAVYFCAADDYYLAGDYWGQGTQVTVSS | low polyreactivity |
| QVQLVESGGGLVQAGGSLRLSCAASGSIFQHNAMGWYRQAPGKERELVATISESGGSTYYADSVKGRFTISRDNAKNTVYLQMNSLKPEDTAVYYCNTDYDYGWWDLGEFDYWGQGTQVTVSS | low polyreactivity |
| QVQLVESGGGLVQAGGSLRLSCAASGSIFQHYSLGRSRQAPGKERELVAAISYDTTSTYYADSVKGRFTISRDNAKNNVYLQMNSLKPEDTAVYYCNTYPEVYGPFQYDYWGQGTQVTVSS | low polyreactivity |
| QVQLVESGGGLVQAGGSLRLSCAASGSIFQIYAMGWYRQAPGKERELAAAINSGGITKYADSVKGRFTISRDNAKNTVYLQMNSLKPEDTAVYYCAKRYGWPYGRFDYWGQGTQVTVSS | low polyreactivity |
| QVQLVESGGGLVQAGGSLRLSCAASGSIFQRNTIGWYIQAPGKERELVAAISRSGGSTYYADSVKGLFTISRDNAKITVYLQMKSLKPEDTEVYYCAVSGGTSRRYYYWGQGTKVTVSS | high polyreactivity |
| QVQLVESGGGLVQAGGSLRLSCAASGSIFQSYDMGWSRQAPGKERELVAAITRSGGRTYYAASVKGRFTISRDNAKNTVYLQMNSLKPEDTAVYYCAAFGWGYGYWGQGTQVTVSS | high polyreactivity |
| QVQLVESGGGLVQAGGSLRLSCAASGSIFQTYAMGWYRQAPGKERELVAAITSGGGSTYYADSVKGRFTISRDNAKNTVYLQMNSLKPEDTAVYYCNRLYRYLVWPAGEYDYWGQGTQVTVTS | high polyreactivity |
| QVQLVESGGGLVQAGGSLRLSCAASGSIFQVYAMGWYRQAPGKEREFVAAISYSGGGTYYADSVKGRFTISRDNAKNTVYLQMNSLKPEDTAVYYCAADVSGWEYDYWGQGTQVTVSS | low polyreactivity |
| QVQLVESGGGLVQAGGSLRLSCAASGSIFQVYAMGWYRQAPGNESEFVADIDWSGESTYYADSVKGRFTISRDNAKNTVYLQMNSLKPEDTAVYYCAAEDGYVTWDRDYEYWGQGTQVTVSS | low polyreactivity |
| QVQLVESGGGLVQAGGSLRLSCAASGSIFQWYAMGWYRQAPGKERELVAAISFNGGITYYADSVKGRFTISRDIAKNTVYLQMNSLKPEDTAVYYCATLPGWGYAAYEYWGQGTQVTVSS | low polyreactivity |
| QVQLVESGGGLVQAGGSLRLSCAASGSIFQWYAMGWYRQAPGKERELVAAITISGTRTYYADSVKGRFTISRDNAKNTVYLQMNSLKPEDTAVYYCAARYTPRRYYYWGQGTQVTVSS | high polyreactivity |
| QVQLVESGGGLVQAGGSLRLSCAASGSIFQYNAMGWYRQAPGKESELVAVISWSGDTYYADSVKGRFTISRDNAKNTVYLQMNSLKPEDTAVYYCATDVLAWAPNDYWGQGTQVTVSS | low polyreactivity |
| QVQLVESGGGLVQAGGSLRLSCAASGSIFQYNTMGWYRQAPGKERELVAAINWSGVSTYYADSVKGRFTISRDNAKNTVYLQMNSLKPEDTAVYYCNARRYVAGSYIYERGYWGQGTQVTVSS | high polyreactivity |
| QVQLVESGGGLVQAGGSLRLSCAASGSIFRANVMGWYRQAPGKERELVASINSDDNTYYADSVKGRFTISRDNAKNTVYLQMKRLKPEDSAVYYCYSEWGLFYDWTVLHMYLDGYYYWGQGTEVTVSS | low polyreactivity |
| QVQLVESGGGLVQAGGSLRLSCAASGSIFRAYAMGWYRQAPGKERELVATISGSGGSTDYADSVKGRFTISRDTAKNTVYLQMNSLKPEDTAVYYCARDDPASHKRYWHDYWGQGTQVTVSS | low polyreactivity |
| QVQLVESGGGLVQAGGSLRLSCAASGSIFRFNAMGWSRQAPGKERELVARITSGGSTNYADSVKGRFTISRDNAKNTVYLQMNSLKPEDTAVYYCAAVYLLRGRRVTSYPYGYWGQGTQVTVSS | high polyreactivity |
| QVQLVESGGGLVQAGGSLRLSCAASGSIFRGNAIGWYRQAPGKDRELVAAISWNGVSTYYADSVKGRFTISRDNAKHTVYLQMNSLKPEDTAVYYCPTVGLRRLFVKPGTLKDYWGQGTQVTVSS | low polyreactivity |
| QVQLVESGGGLVQAGGSLRLSCAASGSIFRGNAMGWYRQAPGKERELVAAISKSGGSTYYADSVKGRFTISRDNAKNTVYLQMNSLKPEDTAVYYCAARTTYLYGMYYWGQGTQVTVSS | low polyreactivity |
| QVQLVESGGGLVQAGGSLRLSCAASGSIFRGNTMGWYRQAPGKERELLAAINWTGGSTYYADSVKGRFTISRDNAKYTVYLQMNSLKPEDTAVYYCAARKFTSYYWGRSYGYWGQGTQVTVSS | high polyreactivity |
| QVQLVESGGGLVQAGGSLRLSCAASGSIFRGYAMGWYRPAPGKERELVAAISSSGGTTYYADSVKGRFTISRDNAKNTVYLQMNSLKPEDTAVYYCNARHPYTGGRRYPYTRYDYWGQGTQVTVSS | high polyreactivity |
